Test results: paper PMC6848142

System: KRAS wild type
Assay: MST
Settings: MST: labeled protein 20 nM final in PBS, RNA diluted in deionized water and mixed 1:1; RNA folded in TE (70 C 5 min, then ice 15 min); pH and assay temperature …

Substance | Kd [nM]
SNORD50A | 140
SNORD50B | 122
